According to article PMC3538841:

Key:
Test in all cases: negative stain EM reconstruction
[1] = biological target: A/Netherlands/219/2003 (H7N7) HA (influenza A virus A/Netherlands/219/2003 (H7N7)) (UniProt Q6VMK1)
[2] = biological target: A/South Carolina/1/1918 (H1N1) HA (influenza A virus A/South Carolina/1/1918 (H1N1)) (UniProt Q9WFX3)
[3] = biological target: A/Hong Kong/1/1968 (H3N2) HA (influenza A virus A/Hong Kong/1/1968 (H3N2)) (UniProt Q91MA7)
[4] = biological target: Wisc66/H9 HA (influenza A virus, Wisc66 (H9))

Measured: stoichiometry N (Fabs per HA trimer)

Fab CR9114
3: all assays above
